Measurements reported in patent US10154957B2, “Microneedle device having a peptide therapeutic agent and an amino acid and methods of making and using the same” (3M INNOVATIVE PROPERTIES COMPANY, priority 2011, dated 2018).

Tests used:
Type in all cases: physicochemical
[1] = Stability of salmon calcitonin in coating on flood-coated microneedle arrays stored at 40° C./96% RH (HPLC); conditions: salmon calcitonin 5 mg/mL in PBS
Experimental: (§1) The protein or polypeptide content in the formulation coated on the microneedle arrays was determined using an Agilent 1100 HPLC system (Agilent Technologies, Wilmington, Del.) equipped with a binary pump, well-plated thermostated autosampler, thermostated column compartment, and a diode array UV detector. A Zorbax 300SB-C8 column (Agilent Technologies, Wilmington, Del.) having a 5 μm particle size and 2.1×150 mm inner diameter was used for the separations. The column was maintained at 50° C. The mobile phase consisted of two eluents. Eluent A was 0.1% TFA (trifluoroacetic acid) in water and eluent B was 0.1% TFA in acetonitrile (Spectrum Chemical, New Brunswick, N.J.). A linear gradient from 80/20 to 50/50 (A/B) was applied over 30 minutes. The flow rate was 0.4 mL/minute and the UV detection wavelength was set at 214 nm. The total run time was 34 minutes and the sample injection volume was 15 μL.
(§2) A sample formulation containing 5 mg/mL of salmon calcitonin and 12 mg/mL of L-histidine monohydrochloride (His-HCl) in PBS was prepared. The pH of the sample formulation was 5.5. A control formulation was also prepared containing 5 mg/mL of salmon calcitonin in PBS. […] The pH of the control formulation was 6.0-6.5. Microneedle arrays were coated with either the sample or the control formulation. The coating was applied by dropwise addition of 50 μL of the formulation to the portion of the array defined by the octagon shaped pattern of microneedles. The flood coated arrays (both sample and control formulation coated) were dried in an oven at 35° C. for about 15 hours.
(§3) After drying, the coated arrays were placed in a storage chamber that was maintained at 40° C. and 96% relative humidity (RH). The salmon calcitonin content of the coated arrays was determined following storage in the chamber for 1, 3, 7, and 14 days. At the designated time point, an array was taken from the chamber and washed with PBS (1 mL) to remove the coating from the array. An aliquot of the resulting wash solution was analyzed for salmon calcitonin content using the HPLC method described above. Reference standards were prepared by measuring the initial salmon calcitonin content of freshly coated arrays (both sample and control formulation coated). The arrays used as reference standards were stored in a refrigerator at about 4° C. and analyzed within one day of being prepared. The percentage of undegraded salmon calcitonin remaining in the coating at each time point was determined by measuring the peak area for salmon calcitonin in the selected coating and dividing it by the peak area measured for salmon calcitonin in the corresponding reference standard.
The same procedure as described in Example 3 was used with the exception that the sample formulation contained 12 mg/mL of L-arginine hydrochloride, instead of L-histidine monohydrochloride. The pH of the sample formulation was 6.0-6.5.

[2] = Stability of lysozyme in coating on flood-coated microneedle arrays stored at 40° C./96% RH (HPLC); conditions: lysozyme 10 mg/mL in PBS
Experimental: as §1
as §2, with “containing 10” for “containing 5”, “of lysozyme” for “of salmon calcitonin”, “was 5.5-6.0.” for “was 5.5.”, “was 6.5.” for “was 6.0-6.5.”
as §3, with “lysozyme” for “salmon calcitonin”, “(2” for “(1”, “lysozyme” for “initial salmon calcitonin”
The same procedure as described in Example 7 was used with the exception that the sample formulation contained 12 mg/mL of L-arginine hydrochloride, instead of L-histidine monohydrochloride. The pH of the sample formulation was 6.5.

[3] = Stability of PTH in coating on flood-coated microneedle arrays stored at 40° C./96% RH (HPLC); conditions: PTH 10 mg/mL in PBS
Experimental: as §1
Microneedle arrays were coated with either the sample or the control formulation. The coating was applied by dropwise addition of 50 μL of the formulation to the portion of the array defined by the octagon shaped pattern of microneedles. The flood coated arrays (both sample and control formulation coated) were dried in an oven at 35° C. for about 15 hours.
After drying, the coated arrays were placed in a storage chamber that was maintained at 40° C. and 96% relative humidity (RH). […] The arrays used as reference standards were stored in a refrigerator at about 4° C. and analyzed within one day of being prepared.

[4] = Amino Acid L-Arginine (Arg-HCl 12 mg/mL), Day 1 at 40° C./96% RH
[5] = Amino Acid L-Arginine (Arg-HCl 12 mg/mL), Day 3 at 40° C./96% RH
[6] = Amino Acid L-Arginine (Arg-HCl 12 mg/mL), Day 7 at 40° C./96% RH
[7] = Amino Acid L-Arginine (Arg-HCl 12 mg/mL), Day 14 at 40° C./96% RH
[8] = Amino Acid L-Arginine (Arg-HCl 12 mg/mL), Initial
[9] = Amino Acid L-Histidine (His-HCl 12 mg/mL), Day 1 at 40° C./96% RH
[10] = Amino Acid L-Histidine (His-HCl 12 mg/mL), Day 3 at 40° C./96% RH
[11] = Amino Acid L-Histidine (His-HCl 12 mg/mL), Day 7 at 40° C./96% RH
[12] = Amino Acid L-Histidine (His-HCl 12 mg/mL), Day 14 at 40° C./96% RH
[13] = Amino Acid L-Histidine (His-HCl 12 mg/mL), Initial
[14] = Amino Acid None (control), Day 1 at 40° C./96% RH
[15] = Amino Acid None (control), Day 3 at 40° C./96% RH
[16] = Amino Acid None (control), Day 7 at 40° C./96% RH
[17] = Amino Acid None (control), Day 14 at 40° C./96% RH
[18] = Amino Acid None (control), Initial

Salmon calcitonin
Percent of Initial Salmon Calcitonin Content in the Coating [1, 4]: 5.8% | Percent of Initial Salmon Calcitonin Content in the Coating [1, 5]: 0.3% | Percent of Initial Salmon Calcitonin Content in the Coating [1, 6]: 0% | Percent of Initial Salmon Calcitonin Content in the Coating [1, 7]: 0% | Percent of Initial Salmon Calcitonin Content in the Coating [1, 8]: 100% | Percent of Initial Salmon Calcitonin Content in the Coating [1, 9]: 30.3% | Percent of Initial Salmon Calcitonin Content in the Coating [1, 10]: 31.7% | Percent of Initial Salmon Calcitonin Content in the Coating [1, 11]: 7.5% | Percent of Initial Salmon Calcitonin Content in the Coating [1, 12]: 2.7% | Percent of Initial Salmon Calcitonin Content in the Coating [1, 13]: 100% | Percent of Initial Salmon Calcitonin Content in the Coating [1, 14]: 21.5% | Percent of Initial Salmon Calcitonin Content in the Coating [1, 15]: 0.9% | Percent of Initial Salmon Calcitonin Content in the Coating [1, 16]: 0.1% | Percent of Initial Salmon Calcitonin Content in the Coating [1, 17]: 0% | Percent of Initial Salmon Calcitonin Content in the Coating [1, 18]: 100%

lysozyme
Percent of Initial Lysozyme Content in the Coating [2, 4]: 52.6% | Percent of Initial Lysozyme Content in the Coating [2, 5]: 33.1% | Percent of Initial Lysozyme Content in the Coating [2, 6]: 22.4% | Percent of Initial Lysozyme Content in the Coating [2, 7]: 23.0% | Percent of Initial Lysozyme Content in the Coating [2, 8]: 100% | Percent of Initial Lysozyme Content in the Coating [2, 9]: 100.0% | Percent of Initial Lysozyme Content in the Coating [2, 10]: 80.6% | Percent of Initial Lysozyme Content in the Coating [2, 11]: 60.1% | Percent of Initial Lysozyme Content in the Coating [2, 12]: 53.3% | Percent of Initial Lysozyme Content in the Coating [2, 13]: 100% | Percent of Initial Lysozyme Content in the Coating [2, 14]: 26.9% | Percent of Initial Lysozyme Content in the Coating [2, 15]: 4.4% | Percent of Initial Lysozyme Content in the Coating [2, 16]: 1.9% | Percent of Initial Lysozyme Content in the Coating [2, 17]: 1.9% | Percent of Initial Lysozyme Content in the Coating [2, 18]: 100%

parathyroid hormone (1-34) (human) [PTH]
Percent of Initial PTH Content in the Coating [3, 4]: 3.5% | Percent of Initial PTH Content in the Coating [3, 5]: 0.8% | Percent of Initial PTH Content in the Coating [3, 6]: 0.4% | Percent of Initial PTH Content in the Coating [3, 7]: 0% | Percent of Initial PTH Content in the Coating [3, 8]: 100% | Percent of Initial PTH Content in the Coating [3, 9]: 85.2% | Percent of Initial PTH Content in the Coating [3, 10]: 60.3% | Percent of Initial PTH Content in the Coating [3, 11]: 23.1% | Percent of Initial PTH Content in the Coating [3, 13]: 100% | Percent of Initial PTH Content in the Coating [3, 14]: 1.3% | Percent of Initial PTH Content in the Coating [3, 15]: 0% | Percent of Initial PTH Content in the Coating [3, 16]: 0% | Percent of Initial PTH Content in the Coating [3, 17]: 0% | Percent of Initial PTH Content in the Coating [3, 18]: 100%
